For one substance, Km results are on record in ChEMBL document CHEMBL2074001, “Competition of hydrophobic peptides, cytotoxic drugs, and chemosensitizers on a common P-glycoprotein pharmacophore as revealed by its ATPase activity” (J Biol Chem, 1996).

Data set [1] has as its system CC(C)[C@@H]1NC(=O)[C@H](C)OC(=O)[C@@H](C(C)C)NC(=O)[C@@H](C(C)C)OC(=O)[C@H](C(C)C)NC(=O)[C@H](C)OC(=O)[C@@H](C(C)C)NC(=O)[C@@H](C(C)C)OC(=O)[C@H](C(C)C)NC(=O)[C@H](C)OC(=O)[C@@H](C(C)C)NC(=O)[C@@H](C(C)C)OC1=O. In words: (§1) TP_TRANSPORTER: ATP hydrolysis in reconstituted proteoliposomes. Format: functional, subcellular.
Data set [2] deals with CC[C@H]1CN2CCc3cc(OC)c(OC)cc3[C@@H]2C[C@@H]1C[C@H]1NCCc2cc(OC)c(OC)cc21. Described as §1. It is filed as functional, subcellular.

As for “ATP-dependent translocase ABCB1 (Homo sapiens)”, the Km in data set [1] came out at 1 µM; in data set [2], 6 µM.
